Source: article PMC9352680, “A comprehensive thermodynamic model for RNA binding by the Saccharomyces cerevisiae Pumilio protein PUF4”

Biological target: T1, PUF4 RNA-binding domain (Saccharomyces cerevisiae, UniProt P25339 537-888)
T1 sequence: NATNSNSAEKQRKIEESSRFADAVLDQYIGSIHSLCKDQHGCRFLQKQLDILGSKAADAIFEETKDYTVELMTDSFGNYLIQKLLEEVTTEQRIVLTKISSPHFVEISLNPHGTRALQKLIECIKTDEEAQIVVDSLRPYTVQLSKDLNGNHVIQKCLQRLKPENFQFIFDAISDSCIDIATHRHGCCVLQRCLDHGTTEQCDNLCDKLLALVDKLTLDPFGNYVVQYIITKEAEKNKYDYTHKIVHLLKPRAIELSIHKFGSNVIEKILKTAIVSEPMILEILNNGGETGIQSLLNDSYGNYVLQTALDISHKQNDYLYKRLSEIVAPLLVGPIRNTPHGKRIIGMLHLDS
Assay: Mg; RNA-MaP; 20 mM Na-HEPES pH 7.4, 30 mM KOAc, 0.75 mM MgCl2, 0.1% Tween-20, 5% glycerol, 0.1 mg/mL BSA, 2 mM DTT; 25 C; 0.0125-409.6 nM protein
Settings: tags: N-His6-TEV cleaved; C-SNAP kept, Cy3B-labelled; label: tethered on chip by stalled RNA polymerase

B1: Ie_S1_P4E.1_K4.1_C4.1_H4.1_A4.1_[+6CCCT]_F4.1_T4.1 (ssRNA)
RNA: UCUCUUUGUAUACCCUUUAUCUCUU
Kd: 48.6 nM

B2: Ie_S1_P4E.1_K4.1_C4.1_H4.1_A4.1_[+6TTC]_F4.1_T4.1 (ssRNA)
RNA: UCUCUUUGUAUAUUCUUAUCUCUU
Kd: 6.67 nM

B3: Ie_S1_P4E.1_K4.1_C4.1_H4.1_A4.1_[+5CTC]_F4.1_T4.1 (ssRNA)
RNA: UCUCUUUGUAUCUCAUUAUCUCUU
Kd: 37.1 nM

B4: Ie_S1_P5E.1_K5.1_C5.1_H5.1_[+4TT]_A5.1_F5.1_T5.1 (ssRNA)
RNA: UCUCUUUGUAUUUUAUUAUCUCUU
Kd: 2.74 nM

B5: Ie_S1_P4E.1_K4.1_C4.1_H4.1_[+4TT]_A4.1_F4.1_T4.1 (ssRNA)
RNA: UCUCUUUGUAUUUAUUAUCUCUU
Kd: 16.2 nM

B6: Ie_S1_P4E.1_K4.1_C4.1_H4.1_A4.1_[+6CCC]_F4.1_T4.1 (ssRNA)
RNA: UCUCUUUGUAUACCCUUAUCUCUU
Kd: 35.3 nM

B7: Ie_S1_P4E.1_K4.1_C4.1_H4.1_[+4CCTC]_A4.1_F4.1_T4.1 (ssRNA)
RNA: UCUCUUUGUACCUCUAUUAUCUCUU
Kd: 12.7 nM

B8: Ie_S1_P4E.1_K4.1_C4.1_H4.1_A4.1_[+5CCCTT]_F4.1_T4.1 (ssRNA)
RNA: UCUCUUUGUAUCCCUUAUUAUCUCUU
Kd: 41 nM

B9: Ie_S1_P4E.1_K4.1_C4.1_H4.1_A4.1_[+7TTT]_F4.1_T4.1 (ssRNA)
RNA: UCUCUUUGUAUAUUUUUAUCUCUU
Kd: 5.93 nM

B10: Ie_S1_P4E.1_K4.1_C4.1_H4.1_A4.1_[+6CCTCT]_F4.1_T4.1 (ssRNA)
RNA: UCUCUUUGUAUACCUCUUUAUCUCUU
Kd: 27.5 nM

B11: Ie_S1_P4E.1_K4.1_C4.1_H4.1_A4.1_[+5CCTC]_F4.1_T4.1 (ssRNA)
RNA: UCUCUUUGUAUCCUCAUUAUCUCUU
Kd: 38.3 nM

B12: Ie_S1_P5E.1_K5.1_C5.1_H5.1_A5.1_[+5C]_F5.1_T5.1 (ssRNA)
RNA: UCUCUUUGUAUCUAUUAUCUCUU
Kd: 13.7 nM

B13: Ie_S1_P5E.1_K5.1_C5.1_H5.1_A5.1_[+5TC]_F5.1_T5.1 (ssRNA)
RNA: UCUCUUUGUAUUCUAUUAUCUCUU
Kd: 3.27 nM

B14: Ie_S1_P4E.1_K4.1_C4.1_H4.1_A4.1_[+6CTT]_F4.1_T4.1 (ssRNA)
RNA: UCUCUUUGUAUACUUUUAUCUCUU
Kd: 6.8 nM

B15: Ie_S1_P4E.1_K4.1_C4.1_H4.1_A4.1_[+6CCTC]_F4.1_T4.1 (ssRNA)
RNA: UCUCUUUGUAUACCUCUUAUCUCUU
Kd: 41.5 nM

B16: Ie_S1_P5E.1_K5.1_C5.1_H5.1_[+4TCTC]_A5.1_F5.1_T5.1 (ssRNA)
RNA: UCUCUUUGUAUCUCUUAUUAUCUCUU
Kd: 21.8 nM

B17: Ie_S1_P4E.1_K4.1_C4.1_H4.1_A4.1_[+6TCT]_F4.1_T4.1 (ssRNA)
RNA: UCUCUUUGUAUAUCUUUAUCUCUU
Kd: 13.9 nM

B18: Ie_S1_P5E.1_K5.1_C5.1_H5.1_A5.1_[+5CCC]_F5.1_T5.1 (ssRNA)
RNA: UCUCUUUGUAUCCCUAUUAUCUCUU
Kd: 20 nM

B19: Ie_S1_P5E.1_K5.1_C5.1_H5.1_[+4CT]_A5.1_F5.1_T5.1 (ssRNA)
RNA: UCUCUUUGUACUUUAUUAUCUCUU
Kd: 2.73 nM

B20: Ie_S1_P4E.1_K4.1_C4.1_H4.1_A4.1_[+6TCTC]_F4.1_T4.1 (ssRNA)
RNA: UCUCUUUGUAUAUCUCUUAUCUCUU
Kd: 24.4 nM

B21: Ie_S1_P4E.1_K4.1_C4.1_H4.1_A4.1_[+6CTCTC]_F4.1_T4.1 (ssRNA)
RNA: UCUCUUUGUAUACUCUCUUAUCUCUU
Kd: 10.9 nM

B22: Ic_S2_P3E.1_K3.1_C3.1_H3.1_A3.1_F3.1_[T7C]_[A8G]_T3.1 (ssRNA)
RNA: UUUGAUUAAUAUGAUAUCGUUCUUUCUUGUAUACGUUCUUUCUCGAUAUCAUAUUAAUCUUU
Kd: 35.1 nM

B23: Ic_S2_P3E.1_K3.1_C3.1_H3.1_A3.1_F3.1_[T7A]_[A8T]_T3.1 (ssRNA)
RNA: UUUGAUUAAUAUGAUAUCGUUCUUUCUUGUAUAAUUUCUUUCUCGAUAUCAUAUUAAUCUUU
Kd: 6.77 nM

B24: Ic_S2_P3E.1_K3.1_C3.1_H3.1_A3.1_F3.1_[T7C]_[A8C]_T3.1 (ssRNA)
RNA: UUUGAUUAAUAUGAUAUCGUUCUUUCUUGUAUACCUUCUUUCUCGAUAUCAUAUUAAUCUUU
Kd: 21.1 nM

B25: Ic_S2_P3E.1_K3.1_C3.1_H3.1_A3.1_F3.1_[T7A]_[A8C]_T3.1 (ssRNA)
RNA: UUUGAUUAAUAUGAUAUCGUUCUUUCUUGUAUAACUUCUUUCUCGAUAUCAUAUUAAUCUUU
Kd: 27.7 nM

B26: Ia_S2_P3E.1_K3.1_C3.1_H3.1_[T1C]_A3.1_F3.1_T3.1 (ssRNA)
RNA: UUUGAUUAAUAUGAUAUCGUUCUUUCUCGUAUAUAUUCUUUCUCGAUAUCAUAUUAAUCUUU
Kd: 136 nM

B27: Ib_S2_P3E.1_K3.1_C3.1_H3.1_A3.1_F3.1_[T7C]_[A8T]_T3.1 (ssRNA)
RNA: UUUGAUUAAUAUGAUAUCGUUCUUUCUUGUAUACUUUCUUUCUCGAUAUCAUAUUAAUCUUU
Kd: 3.86 nM

B28: Ie_S1_P4E.1_K4.1_C4.1_H4.1_A4.1_[+6CTCT]_F4.1_T4.1 (ssRNA)
RNA: UCUCUUUGUAUACUCUUUAUCUCUU
Kd: 12.6 nM

B29: Ie_S1_P5E.1_K5.1_C5.1_H5.1_A5.1_[+6CTC]_F5.1_T5.1 (ssRNA)
RNA: UCUCUUUGUAUUCUCAUUAUCUCUU
Kd: 33.8 nM

B30: Ie_S1_P4E.1_K4.1_C4.1_H4.1_[+4CCCT]_A4.1_F4.1_T4.1 (ssRNA)
RNA: UCUCUUUGUACCCUUAUUAUCUCUU
Kd: 6.31 nM

B31: Ie_S1_P4E.1_K4.1_C4.1_H4.1_A4.1_F4.1_[+8CT]_T4.1 (ssRNA)
RNA: UCUCUUUGUAUAUUCUAUCUCUU
Kd: 5.4 nM

B32: Ie_S1_P4E.1_K4.1_C4.1_H4.1_A4.1_[+5TTC]_F4.1_T4.1 (ssRNA)
RNA: UCUCUUUGUAUUUCAUUAUCUCUU
Kd: 39.7 nM

B33: Ie_S1_P5E.1_K5.1_C5.1_H5.1_A5.1_[+5TCC]_F5.1_T5.1 (ssRNA)
RNA: UCUCUUUGUAUUCCUAUUAUCUCUU
Kd: 10.3 nM

B34: Ie_S1_P4E.1_K4.1_C4.1_H4.1_A4.1_[+6CTC]_F4.1_T4.1 (ssRNA)
RNA: UCUCUUUGUAUACUCUUAUCUCUU
Kd: 8.94 nM

B35: Ie_S1_P4E.1_K4.1_C4.1_H4.1_[+4CCC]_A4.1_F4.1_T4.1 (ssRNA)
RNA: UCUCUUUGUACCCUAUUAUCUCUU
Kd: 5.85 nM

B36: Ie_S1_P4E.1_K4.1_C4.1_H4.1_A4.1_[+5TTCC]_F4.1_T4.1 (ssRNA)
RNA: UCUCUUUGUAUUUCCAUUAUCUCUU
Kd: 96.6 nM

B37: Ie_S1_P5E.1_K5.1_C5.1_H5.1_A5.1_[+5TCTC]_F5.1_T5.1 (ssRNA)
RNA: UCUCUUUGUAUUCUCUAUUAUCUCUU
Kd: 22.9 nM

B38: Ie_S1_P4E.1_K4.1_C4.1_H4.1_A4.1_[+5CCC]_F4.1_T4.1 (ssRNA)
RNA: UCUCUUUGUAUCCCAUUAUCUCUU
Kd: 76.1 nM

B39: Ie_S1_P4E.1_K4.1_C4.1_H4.1_[+4TCT]_A4.1_F4.1_T4.1 (ssRNA)
RNA: UCUCUUUGUAUCUUAUUAUCUCUU
Kd: 4 nM

B40: Ie_S1_P4E.1_K4.1_C4.1_H4.1_[+4TCC]_A4.1_F4.1_T4.1 (ssRNA)
RNA: UCUCUUUGUAUCCUAUUAUCUCUU
Kd: 5.92 nM

B41: Ie_S1_P5E.1_K5.1_C5.1_H5.1_[+4CTC]_A5.1_F5.1_T5.1 (ssRNA)
RNA: UCUCUUUGUACUCUUAUUAUCUCUU
Kd: 6.55 nM

B42: Ie_S1_P5E.1_K5.1_C5.1_H5.1_A5.1_[+5CTC]_F5.1_T5.1 (ssRNA)
RNA: UCUCUUUGUAUCUCUAUUAUCUCUU
Kd: 13.2 nM

B43: Ie_S1_P4E.1_K4.1_C4.1_H4.1_A4.1_[+7CT]_F4.1_T4.1 (ssRNA)
RNA: UCUCUUUGUAUAUCUUAUCUCUU
Kd: 6.9 nM

B44: Ie_S1_P4E.1_K4.1_C4.1_H4.1_A4.1_[+6TCTCT]_F4.1_T4.1 (ssRNA)
RNA: UCUCUUUGUAUAUCUCUUUAUCUCUU
Kd: 14.7 nM

B45: Ie_S1_P4E.1_K4.1_C4.1_H4.1_A4.1_[+7TT]_F4.1_T4.1 (ssRNA)
RNA: UCUCUUUGUAUAUUUUAUCUCUU
Kd: 4.6 nM

B46: Ie_S1_P4E.1_K4.1_C4.1_H4.1_[+4CCT]_A4.1_F4.1_T4.1 (ssRNA)
RNA: UCUCUUUGUACCUUAUUAUCUCUU
Kd: 4.83 nM

B47: Ie_S1_P4E.1_K4.1_C4.1_H4.1_A4.1_[+7CC]_F4.1_T4.1 (ssRNA)
RNA: UCUCUUUGUAUAUCCUAUCUCUU
Kd: 14.2 nM

B48: Ie_S1_P5E.1_K5.1_C5.1_H5.1_A5.1_[+5TTCC]_F5.1_T5.1 (ssRNA)
RNA: UCUCUUUGUAUUUCCUAUUAUCUCUU
Kd: 15.9 nM

B49: Ie_S1_P4E.1_K4.1_C4.1_H4.1_A4.1_[+5TCC]_F4.1_T4.1 (ssRNA)
RNA: UCUCUUUGUAUUCCAUUAUCUCUU
Kd: 62 nM

B50: Ie_S1_P4E.1_K4.1_C4.1_H4.1_[+4CCTCT]_A4.1_F4.1_T4.1 (ssRNA)
RNA: UCUCUUUGUACCUCUUAUUAUCUCUU
Kd: 27.7 nM

B51: Ie_S1_P4E.1_K4.1_C4.1_H4.1_A4.1_[+6CC]_F4.1_T4.1 (ssRNA)
RNA: UCUCUUUGUAUACCUUAUCUCUU
Kd: 8.34 nM

B52: Ie_S1_P5E.1_K5.1_C5.1_H5.1_[+4CCCT]_A5.1_F5.1_T5.1 (ssRNA)
RNA: UCUCUUUGUACCCUUUAUUAUCUCUU
Kd: 17.8 nM

B53: Ie_S1_P5E.1_K5.1_C5.1_H5.1_A5.1_[+5CCTC]_F5.1_T5.1 (ssRNA)
RNA: UCUCUUUGUAUCCUCUAUUAUCUCUU
Kd: 23.9 nM

B54: Ie_S1_P4E.1_K4.1_C4.1_H4.1_[+4TTCCT]_A4.1_F4.1_T4.1 (ssRNA)
RNA: UCUCUUUGUAUUCCUUAUUAUCUCUU
Kd: 19 nM

B55: Ie_S1_P4E.1_K4.1_C4.1_H4.1_A4.1_[+7CCT]_F4.1_T4.1 (ssRNA)
RNA: UCUCUUUGUAUAUCCUUAUCUCUU
Kd: 16.4 nM
